Source: patent US20160137746A1, “METHODS FOR TREATING HIGH CARDIOVASCULAR RISK PATIENTS WITH HYPERCHOLESTEROLEMIA” (Sanofi Biotechnology, priority 2014, published 2016)

System: high cardiovascular risk patients with hypercholesterolemia
Conditions: in vivo
Protocol: Safety parameters (adverse events [including adjudicated cardiovascular events], laboratory data, vital signs, and ECG) were assessed throughout the study.
Safety endpoints assessed in this trial were: cardiovascular events; allergic events; local tolerability at injection site; other adverse events (including hemolytic anemia); laboratory tests: urinalysis, hematology (red blood cell count, red blood cell distribution width (RDW), reticulocyte count, hemoglobin, hematocrit, platelets, white blood cell count with differential blood count), standard chemistry (sodium, potassium, chloride, bicarbonate, calcium, phosphorous, urea nitrogen, creatinine, uric acid, total protein, albumin, LDH, γ Glutamyl Transferase [γGT]), Vitamin E (alpha tocopherol) and other Fat Soluble Vitamins, cortisol (and reflexive ACTH levels, as needed, followed by ACTH stimulation test, as needed), Gonadal Hormone Assessments, Hepatitis C antibody, liver panel (ALT, AST, ALP, and total bilirubin), and CPK; vital signs including heart rate and blood pressure; and 12-lead ECG.
The safety population included all randomized patients who received at least one dose or part of a dose of the double-blind IMP.
Safety analyses were descriptive, performed on the safety population according to treatment actually received. The safety analysis focused on the TEAE period defined as the time from the first dose of double-blind injection up to 70 days after the last double-blind injection. TEAE which developed, worsened or became serious or PCSA occurring after the patient's first injection in the open-label extension study (LTS13643) were not considered in the TEAE period. TEAE period was truncated at the common study cut-off date.

Substance: Alirocumab: human anti-PCSK9 antibody; HCVR SEQ ID NO:1, LCVR SEQ ID NO:6; CDRs SEQ ID NOs 2/3/4/7/8/10
- TEAE Lower respiratory tract infection (LRTI), % of patients: 3.0% (46)
- TEAE Upper respiratory tract infection (URTI), % of patients: 7.0% (109)
- TEAE Urinary tract infection, % of patients: 5.2% (81)
- TEAEs by System-Organ-Class: Infections and infestations, % of patients: 45.5% (705)
